Measured values published in the supplement of paper PMC12764529.

Experiment: folding stability dG unfold (combined trypsin and chymotrypsin); higher = more stable
Method: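 Folding stability of de novo designed mini-proteins (<80 aa, no Cys; designed by TrROS, TrMRF, ProteinMPNN and the joint model) was measured by cDNA display proteolysis with trypsin and chymotrypsin. Each protease was used at 11 concentrations in a threefold dilution series plus a no-protease condition. K50 was inferred by Bayesian fitting of sequencing counts, and dG unfold was derived against a sequence-predicted unfolded-state K50 (Tsuboyama et al. method). Sequences shown include variable-length N-terminal GS-type padding (SAGGSAGG...) inside a display construct carrying a PA tag. Rows were kept only if the AF2 dimer inter-PAE was >15, to exclude likely homo-oligomers.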

Folding stability dG unfold, < -1 kcal/mol:
SAGGSAGGSAGDNGKPEVKPVRIPIFIPGPKEQAKRIANYLYGFGMPIDVEVFDPDGKPISAGGSAGGSAGG [r11_703_TrROS], SAGGSAGGSAGEITIRMPMPDPDGGRRRIQFTIEKIKLPPGQKIKIVSVGPNGSFTIKPKSAGGSAGGSAGG [r11_733_TrROS], SAGGSAGGSAGEPVKIPITIKMRDNGKPREQPFKVEVEPNPDGNTQHKLNMPEGNITEIESAGGSAGGSAGG [r11_816_TrROS], SAGGSAGGSAGGEIKVRIDEYDPPSGFFRIEPPDGRTRQIPVPPGMNPEDLKGDTVTLKPSAGGSAGGSAGG [r7_296_TrROS], SAGGSAGGSAGGELVLPELNKPLNVEKEEVVVEGGEEVVKIKATGSGKPFEYVVPKGLGSAGGSAGGSAGGS [r10_517_JUSTAS], SAGGSAGGSAGGGKVKSIELNPETDLALVEIEPEDGGTATVVLPLDLLENIPLDGTLTISAGGSAGGSAGGS [r10_255_TrMRF], SAGGSAGGSAGGGPDWVLRRRTLEESSPVSTTPNPTGRRRTGYRTLVREEEVVLPPDLESAGGSAGGSAGGS [r10_524_JUSTAS], SAGGSAGGSAGGGSVHMPPLINWQEEEFEYESEEPVHIKRLVYKHPYSNEVEEEIEILLSAGGSAGGSAGGS [r10_881_JUSTAS], SAGGSAGGSAGGGSVTESPSYVVTRSADPAGPALYTVTDLSTGVPSSSTVAPDAPAVVPPSAGGSAGGSAGG [r7_177_JUSTAS], SAGGSAGGSAGGIKPGDKVRIMQMDKNGEMRGPVEIDNVEDGKITIKLPPPYRIMIQPYSAGGSAGGSAGGS [r10_1257_TrROS], SAGGSAGGSAGGIYIPMDDLKKNGMSIEQFADKLGHPVEIEVERNEPGSPVFKIEPDAKSAGGSAGGSAGGS [r10_855_TrROS], SAGGSAGGSAGGKRRKITIPFKMPDGRWHPIRANMSEEQLEDIVEHHPFFKPAIKKALKKSAGGSAGGSAGG [r7_637_TrROS], SAGGSAGGSAGGLKIPKGYPWKLSHNNGKEREFKFDSLDDIKEELNVPIPPGRNIQIEPYSAGGSAGGSAGG [r7_223_TrROS], SAGGSAGGSAGGMEDVKLLSKSYIPETNELEVTVEIPGGELVNIPLKPGVTDEDVLKLISAGGSAGGSAGGS [r10_984_JUSTAS], SAGGSAGGSAGGMELEVHYTPNGYHTAEIRDPNGKPVEIYFDSPEDAPKEAQKLAKELQSAGGSAGGSAGGS [r10_1066_TrROS], SAGGSAGGSAGGMITVKDPATGKWREVTPEELEEVLAANPGPITVEREGGRRTVPAALLSAGGSAGGSAGGS [r10_839_JUSTAS], SAGGSAGGSAGGMKVTVETFEGPDFEIVTERSPEGKVKVFTIKPNEVKEEVIPLENPELSAGGSAGGSAGGS [r10_1169_JUSTAS], SAGGSAGGSAGGMPELEKEGYKVEKFTIFEPDPLKPVGEVTVLTEVPKPKLLEGGSTSGLSAGGSAGGSAGG [r7_959_JUSTAS], SAGGSAGGSAGGMRDIAREFAEKNGDKNKPVRIKMPGGKKHNFTPDDIPDMPFDNWTIEPSAGGSAGGSAGG [r7_863_TrROS], SAGGSAGGSAGGMTKTYVTPVSPDVSEEEIKEKLAPEVSSVEVERDEESGTVTITTTLDSAGGSAGGSAGGS [r10_1007_JUSTAS], SAGGSAGGSAGGMVTIETPDEKYEITPTPEDRVLTKVYKKGKEIIKTKDPNSDKTEILDESAGGSAGGSAGG [r7_683_JUSTAS], SAGGSAGGSAGGMVTNEVIEVDPANPEEVIAEIKAKGKAEAKKIEKLEGDKMKVYVKTSLSAGGSAGGSAGG [r7_589_JUSTAS], SAGGSAGGSAGGNIEIEVERNPENGYYTVEIKFNNPPIEIMVPRGMPKEQAKDWAKDLISAGGSAGGSAGGS [r10_192_TrROS], SAGGSAGGSAGGNTRYIPMPPDDIEELIEEAKDEGIDNVIIHNPENGRWIKITGDKIKPVSAGGSAGGSAGG [r7_564_TrROS], SAGGSAGGSAGGPDIKEAKPGLYPDKPVIYFKLPDREVVLFPGPKERFVKFGDKVLKIPSAGGSAGGSAGGS [r10_559_TrMRF], SAGGSAGGSAGGPDVEKYPFKFPGKKFKIQRNPDDPDSYMISFPPGKTETFPLDDIKPLSAGGSAGGSAGGS [r10_556_TrROS], SAGGSAGGSAGGPEGQWIDMDVEHNPKNNKLTIKFPDSGKPITIPANNIERVGDYIRINSAGGSAGGSAGGS [r10_942_TrROS], SAGGSAGGSAGGPKIQIPVDSPEDAVDEARDWMEQQFGIDPEDMPINVHVNEDDGWLYIRSAGGSAGGSAGG [r7_387_TrROS], SAGGSAGGSAGGPYLRIKWKHPENGKTREIEIPFEGKPLEEIADNIKKEHGMTVTDIEPVSAGGSAGGSAGG [r7_590_TrROS], SAGGSAGGSAGGSGSFDPENGTIEIRVPKTKKPVKIPFPEEEADEFAENLPPNLDRVHFSAGGSAGGSAGGS [r4_282_TrROS], SAGGSAGGSAGGSGVRLRFPADYPELVEKLAKAFGLKPKSFNPDTGEVDIGNEPGAKIVSAGGSAGGSAGGS [r4_3_TrMRF], SAGGSAGGSAGGSKLPPGAKVKIRFPNNNKEHEIKSPEQIKTFEIDGREMKIRKIEVEDSAGGSAGGSAGGS [r4_214_TrROS], SAGGSAGGSAGGSMKIIEVPGPPEEVIEKIKEENPNAKVLSVEEDPEGGVTFKIEIEEKSAGGSAGGSAGGS [r4_95_JUSTAS], SAGGSAGGSAGGSNIKELAKELWDKNPGPRPIRFKGNGYKIRFQMPPEGRLRPVEIEKNSAGGSAGGSAGGS [r4_438_TrROS], SAGGSAGGSAGGSPAFVAPSPDAYLSADPVTGEWEPVPADHVVLSVDPSNGRVTISDPLSAGGSAGGSAGGS [r4_127_TrMRF], SAGGSAGGSAGGSTKTIMLDSPEKVEELVEEAMEKGDPITIEYHDPGEGKPFEFKFPVKSAGGSAGGSAGGS [r4_188_TrROS], SAGGSAGGSAGGSTLEEIREMAKQGKKFKIRNPGNNQEHEIRPDDLDDFRGSPISIEPVSAGGSAGGSAGGS [r4_157_TrROS], SAGGSAGGSAGGSVIMVNSPEWAKEFAGAMMQEKSRKHGEPMTPDDVPVEIEVYDPEDWSAGGSAGGSAGGS [r4_498_TrROS], SAGGSAGGSAGGSVTVSLSELKKILKEKGNPGTVEEILEDPNVSVSKDPNSSNEIVTIPGSAGGSAGGSAGG [r7_180_JUSTAS], SAGGSAGGSAGGTAEEIRDIFEEHGMEVEVEVTPDNVTIQYEMPNGKKREFRIPADDLKSAGGSAGGSAGGS [r10_1029_TrROS], SAGGSAGGSAGGTDKVKEKLAPGRDITVLKIDPTDSVVNVTVKSPDSDVDTVVEVDPELISAGGSAGGSAGG [r7_303_JUSTAS]
